“Also recorded” adds a separate entry of the source.
B1: Dkk1: secreted extracellular Wnt antagonist, canonical Wnt inhibitor (protein, UniProt O94907 32-266, looked up)
Dickkopf-related protein 1: TLNSVLNSNAIKNLPPPLGGAAGHPGSAVSAAPGILYPGGNKYQTIDNYQPYPCAEDEECGTDEYCASPTRGGDAGVQICLACRKRRKRCMRHAMCCPGNYCKNGICVSSDQNHFRGEIEETITESFGNDHSTLDGYSRRTTLSSKMYHTKGQEGSVCLRSSDCASGLCCARHFWSKICKPVLKEGQVCTKHRRKGSHGLEIFQRCYCGEGLSCRIQKDHHQASNSSRLHTCQRH
B2: Noggin: recombinant protein known to inhibit BMP4 (protein, UniProt Q13253 28-232, looked up)
Noggin: QHYLHIRPAPSDNLPLVDLIEHPDPIFDPKEKDLNETLLRSLLGGHYDPGFMATSPPEDRPGGGGGAAGGAEDLAELDQLLRQRPSGAMPSEIKGLEFSEGLAQGKKQRLSKKLRRKLQMWLWSQTFCPVLYAWNDLGSRFWPRYVKVGSCFSKRSCSVPEGMVCKPSKSVHLTVLRWRCQRRGGQRCGWIPIQYPIISECKCSC
B3: R-spondin2: secreted protein of the R-spondin family that activates the Wnt signaling pathway; recombinant (protein, UniProt Q6UXX9 22-243, looked up)
R-spondin-2: QGNRWRRSKRASYVSNPICKGCLSCSKDNGCSRCQQKLFFFLRREGMRQYGECLHSCPSGYYGHRAPDMNRCARCRIENCDSCFSKDFCTKCKVGFYLHRGRCFDECPDGFAPLEETMECVEGCEVGHWSEWGTCSRNNRTCGFKWGLETRTRQIVKKPVKDTILCPTIAESRRCKMTMRHCPGGKRTPKAKEKRNKKKKRKLIERAQEQHSVFLATDRANQ
B4: Follistatin: recombinant protein BMP inhibitor (protein, UniProt P19883 30-344, looked up)
Follistatin: GNCWLRQAKNGRCQVLYKTELSKEECCSTGRLSTSWTEEDVNDNTLFKWMIFNGGAPNCIPCKETCENVDCGPGKKCRMNKKNKPRCVCAPDCSNITWKGPVCGLDGKTYRNECALLKARCKEQPELEVQYQGRCKKTCRDVFCPGSSTCVVDQTNNAYCVTCNRICPEPASSEQYLCGNDGVTYSSACHLRKATCLLGRSIGLAYEGKCIKAKSCEDIQCTGGKKCLWDFKVGRGRCSLCDELCPDSKSDEPVCASDNATYASECAMKEAACSSGVLLEVKHSGSCNSISEDTEEEEEDEDQDYSFPISSILEW
B5: R-spondin3: secreted protein of the R-spondin family that activates the Wnt signaling pathway; recombinant (protein, UniProt Q9BXY4 22-272, looked up)
R-spondin-3: QNASRGRRQRRMHPNVSQGCQGGCATCSDYNGCLSCKPRLFFALERIGMKQIGVCLSSCPSGYYGTRYPDINKCTKCKADCDTCFNKNFCTKCKSGFYLHLGKCLDNCPEGLEANNHTMECVSIVHCEVSEWNPWSPCTKKGKTCGFKRGTETRVREIIQHPSAKGNLCPPTNETRKCTVQRKKCQKGERGKKGRERKRKKPNKGESKEAIPDSKSLESSKEIPEQRENKQQQKKRKVQDKQKSVSVSTVH

Legend:
Msgn1RepV mouse ES cells = test: Msgn1RepV reporter mouse ES cell differentiation, YFP+ (iPAM) cells by flow cytometry; assay type: cell-based; details: for effect on number of YFP+ cells (iPAM induction): 4 days of differentiation
Experimental: Undifferentiated mouse ES cells […] derived) were maintained on gelatin-coated dishes in DMEM supplemented with 15% fetal bovine serum (FBS; from PAA), penicillin, streptomycin, 2 mM L-Glutamine, 0.1 mM non essential amino acids, 1 mM sodium pyruvate, 0.2% β-mercaptoethanol and 1,500 U/mL LIF. ES cells were co-cultured with mytomicin-inactivated MEFs (feeders). Undifferentiated human ES cells were cultured on plates coated with matrigel (BD Biosciences) in mTeSR medium ([…] Technologies). Cultures were maintained in an incubator in 5% CO2 at 37° C. ES cells were trypsinized and plated at various densities in gelatin coated, feeder-free, 24 well plates directly in serum-based (15% FBS) or serum-replacement (15% KSR, Invitrogen) conditions supplemented with factors, and DMSO (Sigma). Recombinant proteins were obtained commercially (R&D) and stock solutions were prepared according to manufacturer's recommendation. The GSK-3ß inhibitor CHIR99021 and the BMP type I receptors inhibitor Dorsomorphin were purchased from Stemgent and prepared according to the manufacturer's recommendations. Fluorescent reporter analysis and image acquisition were done on a Zeiss Axiovert system. Cell cultures were dissociated by trypsinization, analyzed by flow cytometry on a FACScalibur (BD Biosciences) according to YFP expression. Data were further analyzed with MoFlo software (Beckman Coulter) and FlowJo software. In order to optimize the differentiation conditions for paraxial mesoderm progenitors, we developed a manual screening assay, testing candidate growth factors and drugs interfering with various signaling pathways on ES cells. The […] reporter cells were plated at a defined density in 24-well plates coated with gelatin (0.1%). Two basal culture media were selected: a DMEM based medium containing 15% fetal bovine serum (FBS, high serum) and a defined serum-free medium containing 15% KSR (Invitrogen/Gibco). These basal media were supplemented with candidate factors on day 0 of differentiation. Control and experimental conditions were cultured in parallel. Cells were left to differentiate for three to four days with medium changed on day 2 or 3. Cell cultures were analyzed on day 3 and 4 of differentiation visually and by flow cytometry for YFP+ population quantification.

BMP4 = BMP4 and PSM marker expression in Msgn1-YFP+ cells (microarray, qRT-PCR); assay type: cell-based, mouse; details: for iPAM maturation, PSM specific marker expression: added to differentiation medium
Experimental: Mouse E9.5 embryo PSMs were microdissected and processed as previously described (Krol et al, 2011), and prepared samples were run on Affymetrix GeneChip arrays. For differentiated cell cultures, iPAMs were sorted by flow-cytometry based on their Msgn1-YFP+ expression, and samples were prepared for microarrays. Experiments were conducted on biological triplicates. Datasets were processed using Affymetrix Microarray Suite (MAS) 5.0. Total RNA was extracted from ES cell cultures using Trizol (Invitrogen) or with the […] plus mini-kit (Qiagen). RT-PCR was performed on 5 ng total RNA using QuantiFast SYBR Green RT-PCR Kit (Qiagen), appropriate primers and run on a LightCycler 480II (Roche). GAPDH was used as the internal control. To counteract this BMP4 activity, we tested the effect of addition of recombinant Noggin (Nog) protein known to inhibit BMP4, to the differentiation medium. […] We further defined both the optimal concentration and timing of Noggin addition. […] To better characterize the impact of Noggin on Msgn1-YFP+ cells, we performed microarrays on the Msgn1-YFP+ induced paraxial mesoderm progenitors (iPAM) population at day 3 and 4 of differentiation (FIG. 11, compare conditions RDN and RD). We screened a set of BMP inhibitors, including recombinant proteins Noggin (Nog), Chordin (Chd), Chordin-like 1 (Chdl1), Follistatin (Fst), Follistatin-like 1 (Fstl1), Dan family protein including Cerberus 1 (Cerberus) and Gremlin 1 (Grem1); at varying concentration range (10-200 ng/mL), and various time-window (day 0-4, day 1-4) and analyzed the impact on BMP4 and the PSM marker Tbx6 expression. Additionally, we tested the chemical compound Dorsomorphin (Compound C), a specific BMP type I receptor inhibitor, at various concentration (0.1-1 μM) and various time-window (day 0-4, day 1-4).

HUES1 cells = test: qRT-PCR of paraxial mesoderm progenitor markers in differentiating human ES cells; assay type: cell-based; details: 15% FBS containing medium, 3 to 10 days of culture
Experimental: Comparison of the expression of paraxial mesoderm progenitor markers Brachyury (A), PDGFRa (B), Tbx6 (C), Msgn1 (D) measured by Q RT-PCR in HUES1 undifferentiated or cultured in 15% FBS containing medium with or without Rspo3 for up to 10 days. Relative expression to undifferentiated HUES1 cells is shown (fold induction).
Total RNA was extracted from ES cell cultures using Trizol (Invitrogen) or with the Rnaeasy plus mini-kit (Qiagen). RT-PCR was performed on 5 ng total RNA using QuantiFast SYBR Green RT-PCR Kit (Qiagen), appropriate primers and run on a LightCycler 480II (Roche). GAPDH was used as the internal control.
Next, to confirm that R-spondin also induces paraxial mesoderm progenitors (iPAM) cells from human ES cells differentiation, HUES1 cells were plated as single cells and differentiated in 15% FBS containing medium with or without Rspo3. qRT-PCR time course analysis for paraxial mesoderm progenitor markers expression was performed (FIG. 10).

canonical Wnt signaling = test: BAT-luc luciferase reporter for canonical Wnt signaling in ES cells; assay type: cell-based, mouse; details: Rspo3 10 ng/mL, 1% FBS medium

Molecule | effect on number of YFP+ cells (iPAM induction) (Msgn1RepV mouse ES cells; 15% FBS medium) | iPAM maturation, PSM specific marker expression (BMP4) | also measured
Cc1c[nH]c(-c2cnc(NCCNc3ccc(C#N)cn3)nc2-c2ccc(Cl)cc2Cl)n1 [CHIR99021, reference compound] | as efficient as Rspo-3 | – | –
C[S+](C)[O-] [DMSO, Dimethyl sulfoxide, reference compound] | increase of YFP+ cells | – | –
c1cc(-c2cnn3cc(-c4ccc(OCCN5CCCCC5)cc4)cnc23)ccn1 [Dorsomorphin, 6-[4-(2-Piperidin-1-yl-ethoxy)phenyl]-3-pyridin-4-yl-pyrazolo [1,5-a]pyrimidine, reference compound] | – | promoting induced paraxial mesoderm progenitors (iPAM) maturation | –
B1 | sharp decrease of YFP+ induction | – | –
B2 | – | upregulation of several PSM specific markers; also recorded: promoting induced paraxial mesoderm progenitors (iPAM) maturation | total number of Msgn1-YFP+ iPAM cells or total cell number in culture (Msgn1RepV mouse ES cells; added to differentiation medium): does not change the total number; BMP4 expression in Msgn1-YFP+ cells (BMP4; added to differentiation medium with Rspo3 and DMSO, day 3 and 4): effectively repress BMP4 expression; also recorded: represses BMP4 expression
B3 | significantly increase the number of YFP+ cells | – | –
B4 | – | promoting induced paraxial mesoderm progenitors (iPAM) maturation | –
B5 | significantly increase the number of YFP+ cells | – | induction of YFP+ cells (Msgn1RepV mouse ES cells; 10 ng/mL, both FBS based and KSR based medium, 4 days): up to 70%; YFP+ population of the total population (Msgn1RepV mouse ES cells; day 4 of differentiation, 15% FBS medium, R-spondin3 10 ng/mL): more than 70%; expression of paraxial mesoderm progenitor markers (qRT-PCR) (HUES1 cells): induction of the paraxial mesoderm progenitor markers, Brachyury, PDGFRa, Tbx6 and Msgn1 is observed; also recorded: Strong activation of Msgn1 and Tbx6; luciferase from BAT-luc canonical Wnt reporter (canonical Wnt signaling): strongly activated; luciferase from BAT-luc canonical Wnt reporter (canonical Wnt signaling; listed as Rspo3): strongly activates the canonical Wnt response

Reference: patent publication US10240123B2, “Method for preparing induced paraxial mesoderm progenitor (IPAM) cells and their use” (INSERM (INSTITUT NATIONAL DE LA SANTE ET DE LA RECHERCHE …, priority 2011, dated 2019)
